Experimental data taken from paper PMC4034419, “DNA polymerase hybrids derived from the family-B enzymes of Pyrococcus furiosus and Thermococcus kodakarensis: improving performance in the polymerase chain reaction”.

What was measured:
Test in all cases: fluorescence anisotropy; 20 mM Tris-HCl pH 8.5, 10 mM KCl, 10 mM (NH4)2SO4 (ionic strength 40); 10 nM Hex primer-template; rest of buffer and temperature not in material
Details in all cases: protein: recombinant; label: 5'-hexachlorofluorescein on primer (strand 1); 5' overhang 20 nt on template (strand 2)
[1] = target: T1, Tkod-Pol wild type (family-B DNA polymerase) (Thermococcus kodakarensis, UniProt D0VWU9 1-774)
T1 sequence: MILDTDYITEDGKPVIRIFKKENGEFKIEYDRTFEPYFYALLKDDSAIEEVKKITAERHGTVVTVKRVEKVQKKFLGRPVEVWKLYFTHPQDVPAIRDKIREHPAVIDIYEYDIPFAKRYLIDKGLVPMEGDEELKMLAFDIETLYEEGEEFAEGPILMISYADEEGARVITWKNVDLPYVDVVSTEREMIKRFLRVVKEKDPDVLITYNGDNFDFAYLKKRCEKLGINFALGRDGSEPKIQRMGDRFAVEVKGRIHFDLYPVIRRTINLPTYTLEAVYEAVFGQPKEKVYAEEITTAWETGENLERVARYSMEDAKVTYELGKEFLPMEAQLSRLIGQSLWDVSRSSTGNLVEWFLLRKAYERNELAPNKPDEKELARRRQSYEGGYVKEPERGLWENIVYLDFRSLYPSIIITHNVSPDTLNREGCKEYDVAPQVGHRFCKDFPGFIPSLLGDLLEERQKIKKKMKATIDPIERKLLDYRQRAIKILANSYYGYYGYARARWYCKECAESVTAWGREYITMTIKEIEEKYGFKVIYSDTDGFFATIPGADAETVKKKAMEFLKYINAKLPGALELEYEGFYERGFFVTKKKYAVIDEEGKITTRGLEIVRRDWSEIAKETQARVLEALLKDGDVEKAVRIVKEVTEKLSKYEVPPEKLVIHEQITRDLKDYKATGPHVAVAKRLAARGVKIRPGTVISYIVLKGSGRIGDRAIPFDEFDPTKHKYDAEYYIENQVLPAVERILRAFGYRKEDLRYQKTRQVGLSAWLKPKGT

Pfu-Pol L381R/K502R = target: T2, Pfu-Pol L381R/K502R (Pyrococcus furiosus, UniProt P61875 1-775, L381R;K502R)
T2 sequence: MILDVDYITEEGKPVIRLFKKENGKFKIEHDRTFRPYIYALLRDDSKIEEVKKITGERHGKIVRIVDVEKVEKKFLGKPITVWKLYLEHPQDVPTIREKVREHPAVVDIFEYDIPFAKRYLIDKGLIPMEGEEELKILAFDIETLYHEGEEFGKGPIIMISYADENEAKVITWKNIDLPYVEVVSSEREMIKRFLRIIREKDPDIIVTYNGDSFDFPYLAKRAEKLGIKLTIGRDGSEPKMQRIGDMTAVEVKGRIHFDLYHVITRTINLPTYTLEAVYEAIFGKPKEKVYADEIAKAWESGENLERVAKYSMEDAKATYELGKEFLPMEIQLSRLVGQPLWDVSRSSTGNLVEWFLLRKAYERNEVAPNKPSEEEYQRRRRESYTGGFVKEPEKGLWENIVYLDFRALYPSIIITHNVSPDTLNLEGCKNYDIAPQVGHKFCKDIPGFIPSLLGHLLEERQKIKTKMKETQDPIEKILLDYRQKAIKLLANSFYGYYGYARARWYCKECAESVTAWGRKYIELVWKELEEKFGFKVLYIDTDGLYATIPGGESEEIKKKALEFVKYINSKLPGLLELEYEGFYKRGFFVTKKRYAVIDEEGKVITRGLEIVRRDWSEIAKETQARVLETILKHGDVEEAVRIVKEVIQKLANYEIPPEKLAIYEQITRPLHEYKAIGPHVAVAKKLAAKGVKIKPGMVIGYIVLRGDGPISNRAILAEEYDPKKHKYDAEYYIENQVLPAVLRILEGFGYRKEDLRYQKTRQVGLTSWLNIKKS

Pfu-TkodTS (thumb swap) = target: T3, Pfu-TkodTS (thumb swap) (Pyrococcus furiosus / Thermococcus …, UniProt P61875 1-590+D0VWU9:590-774, internal_change)
T3 sequence: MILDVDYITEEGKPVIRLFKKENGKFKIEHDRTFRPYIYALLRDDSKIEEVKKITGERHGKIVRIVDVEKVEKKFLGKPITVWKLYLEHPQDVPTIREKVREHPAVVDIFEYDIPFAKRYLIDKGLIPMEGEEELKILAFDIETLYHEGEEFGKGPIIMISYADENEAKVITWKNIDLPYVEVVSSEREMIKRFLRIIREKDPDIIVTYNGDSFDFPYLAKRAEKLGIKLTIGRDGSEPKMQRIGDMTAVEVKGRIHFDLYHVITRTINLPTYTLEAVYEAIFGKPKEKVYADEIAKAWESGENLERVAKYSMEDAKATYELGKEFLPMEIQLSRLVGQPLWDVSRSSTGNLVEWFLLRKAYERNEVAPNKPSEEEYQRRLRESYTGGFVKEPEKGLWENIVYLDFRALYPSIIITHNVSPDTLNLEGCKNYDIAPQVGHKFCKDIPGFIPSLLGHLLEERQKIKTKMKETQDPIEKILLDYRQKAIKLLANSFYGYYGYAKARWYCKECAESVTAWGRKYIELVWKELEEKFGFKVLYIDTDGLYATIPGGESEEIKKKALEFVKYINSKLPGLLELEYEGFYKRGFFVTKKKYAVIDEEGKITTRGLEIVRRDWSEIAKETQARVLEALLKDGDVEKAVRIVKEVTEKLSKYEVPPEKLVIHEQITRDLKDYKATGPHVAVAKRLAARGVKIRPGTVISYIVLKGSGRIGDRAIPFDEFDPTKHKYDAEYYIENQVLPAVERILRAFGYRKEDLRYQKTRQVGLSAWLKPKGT

Pfu-Pol M247R/L381R = target: T4, Pfu-Pol M247R/L381R (Pyrococcus furiosus, UniProt P61875 1-775, M247R;L381R)
T4 sequence: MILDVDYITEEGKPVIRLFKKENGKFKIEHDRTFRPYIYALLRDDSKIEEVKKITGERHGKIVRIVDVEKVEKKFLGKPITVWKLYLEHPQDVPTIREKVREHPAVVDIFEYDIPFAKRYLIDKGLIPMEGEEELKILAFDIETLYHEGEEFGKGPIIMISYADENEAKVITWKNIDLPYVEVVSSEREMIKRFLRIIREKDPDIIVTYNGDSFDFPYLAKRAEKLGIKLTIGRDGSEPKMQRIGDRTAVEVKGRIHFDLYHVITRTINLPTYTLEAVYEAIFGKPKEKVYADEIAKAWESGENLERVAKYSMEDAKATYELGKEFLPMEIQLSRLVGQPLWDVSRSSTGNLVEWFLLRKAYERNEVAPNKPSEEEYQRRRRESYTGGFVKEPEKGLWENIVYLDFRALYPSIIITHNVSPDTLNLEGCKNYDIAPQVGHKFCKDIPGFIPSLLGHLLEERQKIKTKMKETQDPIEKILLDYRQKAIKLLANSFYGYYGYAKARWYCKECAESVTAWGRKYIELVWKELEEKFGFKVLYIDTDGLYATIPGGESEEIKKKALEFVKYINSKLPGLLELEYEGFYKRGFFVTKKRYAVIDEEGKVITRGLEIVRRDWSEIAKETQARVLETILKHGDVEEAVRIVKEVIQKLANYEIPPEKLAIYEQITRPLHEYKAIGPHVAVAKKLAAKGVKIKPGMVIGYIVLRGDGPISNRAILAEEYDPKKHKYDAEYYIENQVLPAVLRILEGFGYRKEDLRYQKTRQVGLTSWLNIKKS

[2] = target: T5, Pfu-Pol wild type (family-B DNA polymerase) (Pyrococcus furiosus, UniProt P61875 1-775)
T5 sequence: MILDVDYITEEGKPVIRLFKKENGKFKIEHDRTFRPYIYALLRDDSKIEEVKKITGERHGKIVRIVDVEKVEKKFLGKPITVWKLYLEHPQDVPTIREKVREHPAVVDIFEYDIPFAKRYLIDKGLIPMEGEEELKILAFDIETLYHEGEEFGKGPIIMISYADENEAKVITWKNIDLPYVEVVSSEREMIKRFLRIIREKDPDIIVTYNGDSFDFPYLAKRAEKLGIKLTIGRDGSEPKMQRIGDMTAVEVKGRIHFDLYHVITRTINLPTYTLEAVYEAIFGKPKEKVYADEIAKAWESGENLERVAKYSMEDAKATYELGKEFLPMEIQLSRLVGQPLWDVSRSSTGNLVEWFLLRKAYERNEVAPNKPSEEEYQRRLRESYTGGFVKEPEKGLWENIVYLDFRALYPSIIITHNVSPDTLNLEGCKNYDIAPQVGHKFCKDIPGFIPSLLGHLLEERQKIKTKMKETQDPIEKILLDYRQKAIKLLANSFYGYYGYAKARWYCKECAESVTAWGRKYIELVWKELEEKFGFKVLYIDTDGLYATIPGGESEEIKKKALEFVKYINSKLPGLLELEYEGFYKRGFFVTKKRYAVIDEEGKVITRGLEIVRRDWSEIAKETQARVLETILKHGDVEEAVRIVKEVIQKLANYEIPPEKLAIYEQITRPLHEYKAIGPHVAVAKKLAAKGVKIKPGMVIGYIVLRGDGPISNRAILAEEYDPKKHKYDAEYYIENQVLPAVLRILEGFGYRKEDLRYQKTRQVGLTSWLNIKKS

Pfu-TkodTS L381R/K502R = target: T6, Pfu-TkodTS L381R/K502R (Pyrococcus furiosus / Thermococcus …, UniProt P61875 1-590+D0VWU9:590-774, L381R;K502R;internal_change)
T6 sequence: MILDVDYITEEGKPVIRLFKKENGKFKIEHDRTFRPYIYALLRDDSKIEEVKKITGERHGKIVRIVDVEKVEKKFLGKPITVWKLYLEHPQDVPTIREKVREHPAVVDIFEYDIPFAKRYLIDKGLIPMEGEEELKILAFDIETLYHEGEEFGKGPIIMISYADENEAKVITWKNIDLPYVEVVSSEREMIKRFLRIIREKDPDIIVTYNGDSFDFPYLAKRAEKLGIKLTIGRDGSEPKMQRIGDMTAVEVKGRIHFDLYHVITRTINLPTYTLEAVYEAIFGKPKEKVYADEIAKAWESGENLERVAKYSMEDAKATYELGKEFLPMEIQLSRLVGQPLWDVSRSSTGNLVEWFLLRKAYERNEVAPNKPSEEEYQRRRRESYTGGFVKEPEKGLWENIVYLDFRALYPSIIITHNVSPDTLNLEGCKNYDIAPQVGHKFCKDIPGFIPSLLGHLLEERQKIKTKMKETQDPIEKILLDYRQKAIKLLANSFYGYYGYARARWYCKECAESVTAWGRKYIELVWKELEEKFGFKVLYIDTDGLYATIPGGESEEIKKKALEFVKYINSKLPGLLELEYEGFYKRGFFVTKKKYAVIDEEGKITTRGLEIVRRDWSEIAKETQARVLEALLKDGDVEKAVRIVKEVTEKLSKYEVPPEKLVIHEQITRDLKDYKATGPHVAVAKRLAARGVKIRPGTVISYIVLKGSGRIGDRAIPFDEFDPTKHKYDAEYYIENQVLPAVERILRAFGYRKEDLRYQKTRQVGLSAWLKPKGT

B1: Hex primer-template (24/44) (dsDNA)
DNA 1: GGGGATCCTCTAGAGTCGACCTGC
DNA 2: GGAGACAAGCTTGCTTGCCAGCAGGTCGACTCTAGAGGATCCCC
**Q.** With B1 as the binder, how does the Kd [1] read?
**A.** The Kd was 276 ± 18 nM.

**Q.** And the Kd (Pfu-Pol L381R/K502R)?
**A.** The Kd was 107 ± 13 nM.

**Q.** And the Kd (Pfu-TkodTS (thumb swap))?
**A.** Its Kd is 95 ± 7 nM.

**Q.** What about the Kd (Pfu-Pol M247R/L381R) of the same binder?
**A.** The Kd was 70 ± 9 nM.

**Q.** And the Kd [2]?
**A.** Its Kd is 251 ± 23 nM.

**Q.** What about the Kd (Pfu-TkodTS L381R/K502R) of the same binder?
**A.** The Kd was 50 ± 7 nM.
